Here are results for one molecule from article PMC6617973, “RAF dimers control vascular permeability and cytoskeletal rearrangements at endothelial cell‐cell junctions” (The Febs Journal, 2019).

The target in the experiment is T1, RAF1 (endogenous, pMECs) (mouse (endogenous in pMECs), UniProt Q99N57 1-648).
T1 construct: RAF1 kinase, endogenous in primary mouse endothelial cells; source: endogenous, pMEC lysate
The experiment is described as follows: co-IP; RAF1 immunoprecipitates from lysates of F/F and BRAFΔ/Δ pMEC monolayers; Protein G Sepharose with antibody, 4 °C overnight; 25 mM HEPES, 150 mM NaCl, 1 mM EGTA, 0.5% NP-40, 10% glycerol; immunoblot. The note with it: partners not purified. (A western blot detects proteins with antibodies after separation by electrophoresis.)

B1: RHO‐dependent kinase α (enzyme, mouse (endogenous in pMECs), UniProt P70336 1-1388, looked up)
chain: MSRPPPTGKMPGAPEAAPGDGAGAGRQRKLEALIRDPRSPINVESLLDGLNSLVLDLDFPALRKNKNIDNFLNRYEKIVKKIRGLQMKAEDYDVVKVIGRGAFGEVQLVRHKASQKVYAMKLLSKFEMIKRSDSAFFWEERDIMAFANSPWVVQLFCAFQDDRYLYMVMEYMPGGDLVNLMSNYDVPEKWAKFYTAEVVLALDAIHSMGLIHRDVKPDNMLLDKHGHLKLADFGTCMKMDETGMVHCDTAVGTPDYISPEVLKSQGGDGYYGRECDWWSVGVFLFEMLVGDTPFYADSLVGTYSKIMDHKNSLCFPEDTEISKHAKNLICAFLTDREVRLGRNGVEEIKQHPFFKNDQWNWDNIRETAAPVVPELSSDIDSSNFDDIEDDKGDVETFPIPKAFVGNQLPFIGFTYFRENLLLSDSPPCRENDAIQTRKSEESQEIQKKLYALEEHLSSEVQAKEELEQKCKSINTRLEKTAKELEEEITLRKSVESTLRQLEREKALLQHKNAEYQRKADHEADKKRNLENDVNSLKDQLEDLKKRNQSSQISTEKVNQLQKQLDEANALLRTESDTAARLRKTQAESSKQIQQLESNNRDLQDKNCLLETAKLKLEKEFINLQSALESERRDRTHGSEIINDLQGRISGLEEDLKTGKALLAKVELEKRQLQEKLTDLEKEKSNMEIDMTYQLKVIQQSLEQEEAEHKTTKARLADKNKIYESIEEAKSEAMKEMEKKLLEERSLKQKVENLLLEAEKRCSILDCDLKQSQQKLNELLKQKDVLNEDVRNLTLKIEQETQKRCLMQNDLKMQTQQVNTLKMSEKQIKQENNHLMEMKMNLEKQNTELRKERQDADGQMKELQDQLEAEQYFSTLYKTQVRELKEENEEKTKLCKELQQKKQDLQDERDSLAAQLEITLTKADSEQLARSIAEEQYSDLEKEKIMKELEIKEMMARHKQELTEKDTTIASLEETNRTLTSDVANLANEKEELNNKLKDSQEQLSKLKDEEMSAAAIKAQFEKQLLNERTLKTQAVNKLAEIMNRKEPVKRGSDTDVRRKEKENRKLHMELKSEREKLTQQMIKYQKELNEMQAQIAEESQIRIELQMTLDSKDSDIEQLRSQLQALHIGMDSSSIGSGPGDAEPDDGFPESRLEGWLSLPVRNNTKKFGWVKKYVIVSSKKILFYDSEQDKEQSNPYMVLDIDKLFHVRPVTQTDVYRADAKEIPRIFQILYANEGESKKEPEFPVEPVGEKSNYICHKGHEFIPTLYHFPTNCEACMKPLWHMFKPPPALECRRCHIKCHKDHMDKKEEIIAPCKVYYDISSAKNLLLLANSTEEQQKWVSRLVKKIPKKPPAPDPFARSSPRTSMKIQQNQSIRRPSRQLAPNKPS
notes: ROKalpha (ROCK2), endogenous in primary mouse endothelial cells; also called ROKα; ROK; source: endogenous, pMEC lysate
On to B1, for which the “fold increase of the co-precipitate in BRAF-deficient against F/F pMECs” value stood at 3 fold.
